± gives the standard deviation of the averaged measurements.
Experiment: total protein half-life in vivo (active degradation + dilution); higher = more stable protein
[1] = E. coli NCM3722 delta-clpP delta-lon delta-hslV, growth: N-lim chemostat, doubling time 6 h
[2] = E. coli NCM3722 delta-clpP, growth: N-lim chemostat, doubling time 6 h
[3] = E. coli NCM3722 delta-hslV, growth: N-lim chemostat, doubling time 6 h
[4] = E. coli NCM3722 delta-lon, growth: N-lim chemostat, doubling time 6 h
[5] = E. coli NCM3722 delta-smpB, growth: N-lim chemostat, doubling time 6 h
[6] = wild type E. coli NCM3722, growth: C-lim chemostat, doubling time 3 h
[7] = wild type E. coli NCM3722, growth: C-lim chemostat, doubling time 6 h
[8] = wild type E. coli NCM3722, growth: C-lim chemostat, doubling time 12 h
[9] = wild type E. coli NCM3722, growth: N-lim chemostat, doubling time 6 h
[10] = wild type E. coli NCM3722, growth: N-lim chemostat, doubling time 12 h
[11] = wild type E. coli NCM3722, growth: P-lim chemostat, doubling time 6 h
[12] = wild type E. coli NCM3722, growth: P-lim chemostat, doubling time 12 h

Row | Sequence | total protein half-life in vivo [1] [h] | total protein half-life in vivo [2] [h] | total protein half-life in vivo [3] [h] | total protein half-life in vivo [4] [h] | total protein half-life in vivo [5] [h] | total protein half-life in vivo [6] [h] | total protein half-life in vivo [7] [h] | total protein half-life in vivo [8] [h] | total protein half-life in vivo [9] [h] | total protein half-life in vivo [10] [h] | total protein half-life in vivo [11] [h] | total protein half-life in vivo [12] [h]
1 | MSRRLRRTKIVTTLGPATDRDNNLEKVIAAGANVVRMNFSHGSPEDHKMRADKVREIAAKLGRHVAILGDLQGPKIRVSTFKEGKVFLNIGDKFLLDANLGKGEGDKEKVGIDYKGLPADVVPGDILLLDDGRVQLKVLEVQGMKVFTEVTVGGPLSNNKGINKLGGGLSAEALTEKDKADIKTAALIGVDYLAVSFPRCGEDLNYARRLARDAGCDAKIVAKVERAEAVCSQDAMDDIILASDVVMVARGDLGVEIGDPELVGIQKALIRRARQLNRAVITATQMMESMITNPMPTRAEVMDVANAVLDGTDAVMLSAETAAGQYPSETVAAMARVCLGAEKIPSINVSKHRLDVQFDNVEEAIAMSAMYAANHLKGVTAIITMTESGRTALMTSRISSGLPIFAMSRHERTLNLTALYRGVTPVHFDSANDGVAAASEAVNLLRDKGYLMSGDLVIVTQGDVMSTVGSTNTTRILTVE | 5.558 ± 0.04 | 5.39 ± 0.19 | 5.15 ± 0.41 | 5.61 ± 0.28 | 5.32 ± 0.27 | 3.02 ± 0.11 | 5.989 ± 0.05 | 11.4 ± 0.78 | 5.4882 ± 0.00083 | 9.898 ± 0.052 | 5.96 ± 0.26 | 13.1 ± 0.68
2 | MIKPTFLRRVAIAALLSGSCFSAAAAPPAPPVSYGVEEDVFHPVRAKQGMVASVDATATQVGVDILKEGGNAVDAAVAVGYALAVTHPQAGNLGGGGFMLIRSKNGNTTAIDFREMAPAKATRDMFLDDQGNPDSKKSLTSHLASGTPGTVAGFSLALDKYGTMPLNKVVQPAFKLARDGFIVNDALADDLKTYGSEVLPNHENSKAIFWKEGEPLKKGDTLVQANLAKSLEMIAENGPDEFYKGTIAEQIAQEMQKNGGLITKEDLAAYKAVERTPISGDYRGYQVYSMPPPSSGGIHIVQILNILENFDMKKYGFGSADAMQIMAEAEKYAYADRSEYLGDPDFVKVPWQALTNKAYAKSIADQIDINKAKPSSEIRPGKLAPYESNQTTHYSVVDKDGNAVAVTYTLNTTFGTGIVAGESGILLNNQMDDFSAKPGVPNVYGLVGGDANAVGPNKRPLSSMSPTIVVKDGKTWLVTGSPGGSRIITTVLQMVVNSIDYGLNVAEATNAPRFHHQWLPDELRVEKGFSPDTLKLLEAKGQKVALKEAMGSTQSIMVGPDGELYGASDPRSVDDLTAGY | 6.01 ± 0.77 |  | 5.99 ± 0.16 |  | 6.24 ± 0.43 | 3.1 ± 0.34 | 5.9124 ± 0.0049 | 12.2 ± 2.3 | 6.219 ± 0.013 | 12.42 ± 0.05 | 5.73 ± 0.52 | 13.2 ± 1.1
3 | MISLFDMFKVGIGPSSSHTVGPMKAGKQFVDDLVEKGLLDSVTRVAVDVYGSLSLTGKGHHTDIAIIMGLAGNEPATVDIDSIPGFIRDVEERERLLLAQGRHEVDFPRDNGMRFHNGNLPLHENGMQIHAYNGDEVVYSKTYYSIGGGFIVDEEHFGQDAANEVSVPYPFKSATELLAYCNETGYSLSGLAMQNELALHSKKEIDEYFAHVWQTMQACIDRGMNTEGVLPGPLRVPRRASALRRMLVSSDKLSNDPMNVIDWVNMFALAVNEENAAGGRVVTAPTNGACGIVPAVLAYYDHFIESVSPDIYTRYFMAAGAIGALYKMNASISGAEVGCQGEVGVACSMAAAGLAELLGGSPEQVCVAAEIGMEHNLGLTCDPVAGQVQVPCIERNAIASVKAINAARMALRRTSAPRVSLDKVIETMYETGKDMNAKYRETSRGGLAIKVQCD | 3.76 ± 0.4 | 3.54 ± 0.37 | 1.9 ± 0.28 | 2.48 ± 0.38 | 1.78 ± 0.14 | 1.52 ± 0.084 | 2.267 ± 0.0096 | 3.25 ± 0.43 | 2.08 ± 0.26 | 2.57 ± 0.32 | 3.4 ± 0.63 | 7.67 ± 0.65
4 | MDHLPMPKFGPLAGLRVVFSGIEIAGPFAGQMFAEWGAEVIWIENVAWADTIRVQPNYPQLSRRNLHALSLNIFKDEGREAFLKLMETTDIFIEASKGPAFARRGITDEVLWQHNPKLVIAHLSGFGQYGTEEYTNLPAYNTIAQAFSGYLIQNGDVDQPMPAFPYTADYFSGLTATTAALAALHKVRETGKGESIDIAMYEVMLRMGQYFMMDYFNGGEMCPRMSKGKDPYYAGCGLYKCADGYIVMELVGITQIEECFKDIGLAHLLGTPEIPEGTQLIHRIECPYGPLVEEKLDAWLATHTIAEVKERFAELNIACAKVLTVPELESNPQYVARESITQWQTMDGRTCKGPNIMPKFKNNPGQIWRGMPSHGMDTAAILKNIGYSENDIQELVSKGLAKVED | 6.21 ± 0.21 | 4.41 | 4.77 ± 0.81 | 4.71 | 4.726 ± 0.00071 | > 4 |  | 13 |  | 8.76 | 6.27 | 
5 | MSAKHPVIAVTGSSGAGTTTTSLAFRKIFAQLNLHAAEVEGDSFHRYTRPEMDMAIRKARDAGRHISYFGPEANDFGLLEQTFIEYGQSGKGKSRKYLHTYDEAVPWNQVPGTFTPWQPLPEPTDVLFYEGLHGGVVTPQHNVAQHVDLLVGVVPIVNLEWIQKLIRDTSERGHSREAVMDSVVRSMEDYINYITPQFSRTHLNFQRVPTVDTSNPFAAKGIPSLDESFVVIHFRNLEGIDFPWLLAMLQGSFISHINTLVVPGGKMGLAMELIMLPLVQRLMEGKKIE [P0AEX5] | 5.45 ± 0.28 | 5.4 ± 0.23 | 4.95 ± 0.67 | 4.68 ± 1.1 | 5.185 ± 0.032 | 2.96 ± 0.14 | 5.5 ± 0.22 | 11.8 ± 3.6 | 5.42 ± 0.28 | 10.9 ± 2.4 | 6.156 ± 0.01 | 12.4 ± 2.5
6 | MRLRKYNKSLGWLSLFAGTVLLSGCNSALLDPKGQIGLEQRSLILTAFGLMLIVVIPAILMAVGFAWKYRASNKDAKYSPNWSHSNKVEAVVWTVPILIIIFLAVLTWKTTHALEPSKPLAHDEKPITIEVVSMDWKWFFIYPEQGIATVNEIAFPANTPVYFKVTSNSVMNSFFIPRLGSQIYAMAGMQTRLHLIANEPGTYDGISASYSGPGFSGMKFKAIATPDRAAFDQWVAKAKQSPNTMSDMAAFEKLAAPSEYNQVEYFSNVKPDLFADVINKFMAHGKSMDMTQPEGEHSAHEGMEGMDMSHAESAH [P0ABJ1] | 5.81 ± 1.2 |  | 6.43 ± 0.55 | 6.06 ± 0.16 | 5.63 ± 0.44 |  | 7.01 ± 0.81 |  | 6.11 ± 0.29 |  | 5.85 ± 0.097 | 11.98 ± 0.095
7 | MRMNVFEMEGFLRGKCVPRDLKVNETNAEYLVRKFDALEAKCAALENKIIPVSAELPPANESVLLFDANGEGWLIGWRSLWYTWGQKETGEWQWTFQVGDLENVNITHWAVMPKAPEAGA |  |  |  |  | 2.28 | 2.52 |  |  |  |  | 3.02 ± 0.68 | 5.84
